From patent JP2014043405A (dated 2014) come the findings set out here.

The chains are these.
T1: ヒトFcγRIIb (human, UniProt P31994 43-217)
T1 construct: extracellular domain; for the crystals it was expressed with kifunensine and its N-glycans trimmed with Endo F1; also called FcγRIIb細胞外領域
T1 sequence (looked up): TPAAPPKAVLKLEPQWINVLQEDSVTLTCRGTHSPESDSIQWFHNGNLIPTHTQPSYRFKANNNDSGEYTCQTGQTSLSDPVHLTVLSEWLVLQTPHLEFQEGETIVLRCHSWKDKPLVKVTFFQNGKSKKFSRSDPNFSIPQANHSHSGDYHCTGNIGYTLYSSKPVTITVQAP

B1: IL6R-BP423/IL6R-L (antibody, human IgG1)
heavy: QVQLQESGPGLVKPSETLSLTCAVSGHSISHDHAWSWVRQPPGEGLEWIGFISYSGITNYNPSLQGRVTISRDNSKNTLYLQMNSLRAEDTAVYYCARSLARTTAMDYWGEGTLVTVSSASTKGPSVFPLAPSSKSTSGGTAALGCLVKDYFPEPVTVSWNSGALTSGVHTFPAVLQSSGLYSLSSVVTVPSSSLGTQTYICNVNHKPSNTKVDKKVEPKSCDKTHTCPPCPAPDLLGDDSVFLFPPKPKDTLMISRTPEVTCVVVDVAEEDGEVKFNWYVDGVEVHNAKTKPREEQYNSTYRVVSVLTVLHQDWLNGKEYKCKVSNKALPRPIEKTISKAKGQPREPQVYTLPPSRDELTKNQVSLTCLVKGFYPSDIAVEWESNGQPENNYKTTPPVLDSDGSFFLYSKLTVDKSRWQQGNVFSCSVMHEALHNHYTQESLSLSP
light: DIQMTQSPSSLSASVGDRVTITCRASQDISSYLNWYQQKPGKAPKLLIYYTSRLHSGVPSRFSGSGSGTDFTFTISSLQPEDIATYYCQQGNTLPYTFGQGTKVEIK
B2: IL6R-BP267/IL6R-LにS267Gの改変が加えられた改変体 (antibody, human IgG1)
heavy: QVQLQESGPGLVKPSETLSLTCAVSGHSISHDHAWSWVRQPPGEGLEWIGFISYSGITNYNPSLQGRVTISRDNSKNTLYLQMNSLRAEDTAVYYCARSLARTTAMDYWGEGTLVTVSSASTKGPSVFPLAPSSKSTSGGTAALGCLVKDYFPEPVTVSWNSGALTSGVHTFPAVLQSSGLYSLSSVVTVPSSSLGTQTYICNVNHKPSNTKVDKKVEPKSCDKTHTCPPCPAPDLLGDDSVFLFPPKPKDTLMISRTPEVTCVVVDVGEEDGEVKFNWYVDGVEVHNAKTKPREEQYNSTYRVVSVLTVLHQDWLNGKEYKCKVSNKALPAPIEKTISKAKGQPREPQVYTLPPSRDELTKNQVSLTCLVKGFYPSDIAVEWESNGQPENNYKTTPPVLDSDGSFFLYSKLTVDKSRWQQGNVFSCSVMHEALHNHYTQESLSLSP
light: DIQMTQSPSSLSASVGDRVTITCRASQDISSYLNWYQQKPGKAPKLLIYYTSRLHSGVPSRFSGSGSGTDFTFTISSLQPEDIATYYCQQGNTLPYTFGQGTKVEIK
notes: also called IL6R-BP267 + S267G
B3: IL6R-BP267/IL6R-LにS267Aの改変が加えられた改変体 (antibody, human IgG1)
heavy: QVQLQESGPGLVKPSETLSLTCAVSGHSISHDHAWSWVRQPPGEGLEWIGFISYSGITNYNPSLQGRVTISRDNSKNTLYLQMNSLRAEDTAVYYCARSLARTTAMDYWGEGTLVTVSSASTKGPSVFPLAPSSKSTSGGTAALGCLVKDYFPEPVTVSWNSGALTSGVHTFPAVLQSSGLYSLSSVVTVPSSSLGTQTYICNVNHKPSNTKVDKKVEPKSCDKTHTCPPCPAPDLLGDDSVFLFPPKPKDTLMISRTPEVTCVVVDVAEEDGEVKFNWYVDGVEVHNAKTKPREEQYNSTYRVVSVLTVLHQDWLNGKEYKCKVSNKALPAPIEKTISKAKGQPREPQVYTLPPSRDELTKNQVSLTCLVKGFYPSDIAVEWESNGQPENNYKTTPPVLDSDGSFFLYSKLTVDKSRWQQGNVFSCSVMHEALHNHYTQESLSLSP
light: DIQMTQSPSSLSASVGDRVTITCRASQDISSYLNWYQQKPGKAPKLLIYYTSRLHSGVPSRFSGSGSGTDFTFTISSLQPEDIATYYCQQGNTLPYTFGQGTKVEIK
notes: also called IL6R-BP267 + S267A
B4: IL6R-BP267/IL6R-LにS267Eの改変が加えられた改変体 (antibody, human IgG1)
heavy: QVQLQESGPGLVKPSETLSLTCAVSGHSISHDHAWSWVRQPPGEGLEWIGFISYSGITNYNPSLQGRVTISRDNSKNTLYLQMNSLRAEDTAVYYCARSLARTTAMDYWGEGTLVTVSSASTKGPSVFPLAPSSKSTSGGTAALGCLVKDYFPEPVTVSWNSGALTSGVHTFPAVLQSSGLYSLSSVVTVPSSSLGTQTYICNVNHKPSNTKVDKKVEPKSCDKTHTCPPCPAPDLLGDDSVFLFPPKPKDTLMISRTPEVTCVVVDVEEEDGEVKFNWYVDGVEVHNAKTKPREEQYNSTYRVVSVLTVLHQDWLNGKEYKCKVSNKALPAPIEKTISKAKGQPREPQVYTLPPSRDELTKNQVSLTCLVKGFYPSDIAVEWESNGQPENNYKTTPPVLDSDGSFFLYSKLTVDKSRWQQGNVFSCSVMHEALHNHYTQESLSLSP
light: DIQMTQSPSSLSASVGDRVTITCRASQDISSYLNWYQQKPGKAPKLLIYYTSRLHSGVPSRFSGSGSGTDFTFTISSLQPEDIATYYCQQGNTLPYTFGQGTKVEIK
notes: also called IL6R-BP267 + S267E
B5: IL6R-BP267/IL6R-LにV264Iの改変が加えられた改変体 (antibody, human IgG1)
heavy: QVQLQESGPGLVKPSETLSLTCAVSGHSISHDHAWSWVRQPPGEGLEWIGFISYSGITNYNPSLQGRVTISRDNSKNTLYLQMNSLRAEDTAVYYCARSLARTTAMDYWGEGTLVTVSSASTKGPSVFPLAPSSKSTSGGTAALGCLVKDYFPEPVTVSWNSGALTSGVHTFPAVLQSSGLYSLSSVVTVPSSSLGTQTYICNVNHKPSNTKVDKKVEPKSCDKTHTCPPCPAPDLLGDDSVFLFPPKPKDTLMISRTPEVTCVVIDVSEEDGEVKFNWYVDGVEVHNAKTKPREEQYNSTYRVVSVLTVLHQDWLNGKEYKCKVSNKALPAPIEKTISKAKGQPREPQVYTLPPSRDELTKNQVSLTCLVKGFYPSDIAVEWESNGQPENNYKTTPPVLDSDGSFFLYSKLTVDKSRWQQGNVFSCSVMHEALHNHYTQESLSLSP
light: DIQMTQSPSSLSASVGDRVTITCRASQDISSYLNWYQQKPGKAPKLLIYYTSRLHSGVPSRFSGSGSGTDFTFTISSLQPEDIATYYCQQGNTLPYTFGQGTKVEIK
notes: also called IL6R-BP267 + V264I
B6: IL6R-BP267/IL6R-LにE269Dの改変が加えられた改変体 (antibody, human IgG1)
heavy: QVQLQESGPGLVKPSETLSLTCAVSGHSISHDHAWSWVRQPPGEGLEWIGFISYSGITNYNPSLQGRVTISRDNSKNTLYLQMNSLRAEDTAVYYCARSLARTTAMDYWGEGTLVTVSSASTKGPSVFPLAPSSKSTSGGTAALGCLVKDYFPEPVTVSWNSGALTSGVHTFPAVLQSSGLYSLSSVVTVPSSSLGTQTYICNVNHKPSNTKVDKKVEPKSCDKTHTCPPCPAPDLLGDDSVFLFPPKPKDTLMISRTPEVTCVVVDVSEDDGEVKFNWYVDGVEVHNAKTKPREEQYNSTYRVVSVLTVLHQDWLNGKEYKCKVSNKALPAPIEKTISKAKGQPREPQVYTLPPSRDELTKNQVSLTCLVKGFYPSDIAVEWESNGQPENNYKTTPPVLDSDGSFFLYSKLTVDKSRWQQGNVFSCSVMHEALHNHYTQESLSLSP
light: DIQMTQSPSSLSASVGDRVTITCRASQDISSYLNWYQQKPGKAPKLLIYYTSRLHSGVPSRFSGSGSGTDFTFTISSLQPEDIATYYCQQGNTLPYTFGQGTKVEIK
notes: also called IL6R-BP267 + E269D
B7: IL6R-BP267/IL6R-LにV266Fの改変が加えられた改変体 (antibody, human IgG1)
heavy: QVQLQESGPGLVKPSETLSLTCAVSGHSISHDHAWSWVRQPPGEGLEWIGFISYSGITNYNPSLQGRVTISRDNSKNTLYLQMNSLRAEDTAVYYCARSLARTTAMDYWGEGTLVTVSSASTKGPSVFPLAPSSKSTSGGTAALGCLVKDYFPEPVTVSWNSGALTSGVHTFPAVLQSSGLYSLSSVVTVPSSSLGTQTYICNVNHKPSNTKVDKKVEPKSCDKTHTCPPCPAPDLLGDDSVFLFPPKPKDTLMISRTPEVTCVVVDFSEEDGEVKFNWYVDGVEVHNAKTKPREEQYNSTYRVVSVLTVLHQDWLNGKEYKCKVSNKALPAPIEKTISKAKGQPREPQVYTLPPSRDELTKNQVSLTCLVKGFYPSDIAVEWESNGQPENNYKTTPPVLDSDGSFFLYSKLTVDKSRWQQGNVFSCSVMHEALHNHYTQESLSLSP
light: DIQMTQSPSSLSASVGDRVTITCRASQDISSYLNWYQQKPGKAPKLLIYYTSRLHSGVPSRFSGSGSGTDFTFTISSLQPEDIATYYCQQGNTLPYTFGQGTKVEIK
notes: also called IL6R-BP267 + V266F

The target of this assay is T1, ヒトFcγRIIb. Description: SPR, KD.
In the case of B1, the binding result is recorded as “binds”. For B2, the binding result was “binds”. The value for B3 was “binds”; that for B4 was “binds”; that for B5 was “binds”. As for B6, the binding result was “binds”. On to B7, for which the binding result was “binds”.
